This is an account of results in article PMC12416549 (2024).

Where a chain is given by its changes, count along the chain named. Names may count otherwise.

Sequences and labels used below:
B1: E18P (designed binder)
chain: MTLQELLREEALRRAEAPAFRYALELLAEKFPEQKEYLLDLAEEIESQIRSLSGVDVEDVRKFLDKEWAWVKELLAEHPAELAEVEAARAARLAELRAEVEAKVAA
B2: M1C (designed binder)
chain: B1 chain with M1C, P18E
B3: A15R (designed binder)
chain: B1 chain with A15R, P18E
B4: D56N (designed binder)
chain: B1 chain with P18E, D56N
B5: D65S (designed binder)
chain: B1 chain with P18E, D65S
B6: A17Q (designed binder)
chain: B1 chain with A17Q, P18E
B7: E86V (designed binder)
chain: B1 chain with P18E, E86V
B8: R13N (designed binder)
chain: B1 chain with R13N, P18E
B9: G54D (designed binder)
chain: B1 chain with P18E, G54D
B10: L12F (designed binder)
chain: B1 chain with L12F, P18E
B11: D59S (designed binder)
chain: B1 chain with P18E, D59S
B12: E36Q (designed binder)
chain: B1 chain with P18E, E36Q
B13: S51N (designed binder)
chain: B1 chain with P18E, S51N
B14: E58H (designed binder)
chain: B1 chain with P18E, E58H
B15: A28I (designed binder)
chain: B1 chain with P18E, A28I
B16: R21V (designed binder)
chain: B1 chain with P18E, R21V
B17: E95W (designed binder)
chain: B1 chain with P18E, E95W
B18: L12I (designed binder)
chain: B1 chain with L12I, P18E
B19: F20L (designed binder)
chain: B1 chain with P18E, F20L
B20: L6S (designed binder)
chain: B1 chain with L6S, P18E
B21: R50D (designed binder)
chain: B1 chain with P18E, R50D
B22: A42L (designed binder)
chain: B1 chain with P18E, A42L
B23: E16L (designed binder)
chain: B1 chain with E16L, P18E
B24: R21K (designed binder)
chain: B1 chain with P18E, R21K
B25: D65C (designed binder)
chain: B1 chain with P18E, D65C
B26: L96D (designed binder)
chain: B1 chain with P18E, L96D
B27: H78Y (designed binder)
chain: B1 chain with P18E, H78Y
B28: L41M (designed binder)
chain: B1 chain with P18E, L41M
B29: E95S (designed binder)
chain: B1 chain with P18E, E95S
B30: E44P (designed binder)
chain: B1 chain with P18E, E44P
B31: V71M (designed binder)
chain: B1 chain with P18E, V71M
B32: V100R (designed binder)
chain: B1 chain with P18E, V100R
B33: K103S (designed binder)
chain: B1 chain with P18E, K103S
B34: L6W (designed binder)
chain: B1 chain with L6W, P18E
B35: K72I (designed binder)
chain: B1 chain with P18E, K72I
B36: L26T (designed binder)
chain: B1 chain with P18E, L26T
B37: A98V (designed binder)
chain: B1 chain with P18E, A98V
B38: E77W (designed binder)
chain: B1 chain with P18E, E77W
B39: A98P (designed binder)
chain: B1 chain with P18E, A98P
B40: A105T (designed binder)
chain: B1 chain with P18E, A105T

For this experiment, the target named is T1, TNFR1 (Homo sapiens, UniProt P19438).
T1 chain: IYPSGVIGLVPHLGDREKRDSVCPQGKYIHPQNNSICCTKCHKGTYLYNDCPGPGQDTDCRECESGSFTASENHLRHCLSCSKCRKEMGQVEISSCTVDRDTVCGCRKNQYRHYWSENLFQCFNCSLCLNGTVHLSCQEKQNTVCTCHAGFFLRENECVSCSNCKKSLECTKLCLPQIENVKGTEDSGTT
Nature of the experiment: yeast display SC50.
Take B1: the “apparent Kd (screen)” value was determined as 1050 pM. As for B2, the “apparent Kd (screen)” value came out at 718 pM.

On to B3, for which the “apparent Kd (screen)” value turned out to be 718 pM. With B4, the “apparent Kd (screen)” value is 653 pM. For B5, the “apparent Kd (screen)” value turned out to be 790 pM. With B6 the figure was 277 pM; with B7, 956 pM.

Take B8: the “apparent Kd (screen)” value was 1160 pM.

As for B9, the “apparent Kd (screen)” value is 13800 pM. B10: the “apparent Kd (screen)” value came to 593 pM. In the case of B11, the “apparent Kd (screen)” value is 539 pM. For the molecule B12, the “apparent Kd (screen)” value was 490 pM.

Regarding B13, the “apparent Kd (screen)” value was found to be 1690 pM. B14: the “apparent Kd (screen)” value is 593 pM.

As for B15, the “apparent Kd (screen)” value came out at 7780 pM. For B16, the “apparent Kd (screen)” value came out at 718 pM. For B17, the “apparent Kd (screen)” value amounted to 446 pM.

Turning to B18, the “apparent Kd (screen)” value came to 539 pM. The figure for B19 is 593 pM; for B20 it is 4830 pM; for B21 it is 490 pM. On to B22, for which the “apparent Kd (screen)” value was found to be 2050 pM.

Turning to B23, the “apparent Kd (screen)” value was found to be 593 pM. Consider B24, for which the “apparent Kd (screen)” value was 593 pM.

In the case of B25, the “apparent Kd (screen)” value is 539 pM. For B26, the “apparent Kd (screen)” value is 539 pM.

B27: the “apparent Kd (screen)” value was 653 pM. Consider B28, for which the “apparent Kd (screen)” value was 718 pM. As for B29, the “apparent Kd (screen)” value was determined as 539 pM. Take B30: the “apparent Kd (screen)” value worked out at 1160 pM. B31: the “apparent Kd (screen)” value worked out at 593 pM.

For B32, the “apparent Kd (screen)” value is 718 pM. On to B33, for which the “apparent Kd (screen)” value is 539 pM. As to B34, the “apparent Kd (screen)” value was found to be 3990 pM. The figure for B35 is 539 pM; for B36 it is 490 pM.

Take B37: the “apparent Kd (screen)” value was 490 pM. Turning to B38, the “apparent Kd (screen)” value turned out to be 539 pM. For the molecule B39, the “apparent Kd (screen)” value came to 539 pM.

For the molecule B40, the “apparent Kd (screen)” value was determined as 869 pM.
